Laboratory results taken from PMC2587052 (Nature structural & molecular biology, 2008).
Where a chain is given by its changes, count along the chain named. Names may count otherwise.

B1: synaptotagmin-1 C2AB fragment (residues 140-421), wild type (domain or fragment)
chain: EKLGKLQYSLDYDFQNNQLLVGIIQAAELPALDMGGTSDPYVKVFLLPDKKKKFETKVHRKTLNPVFNEQFTFKVPYSELGGKTLVMAVYDFDRFSKHDIIGEFKVPMNTVDFGHVTEEWRDLQSAEKEEQEKLGDICFSLRYVPTAGKLTVVILEAKNLKKMDVGGLSDPYVKIHLMQNGKRLKKKKTTIKKNTLNPYYNESFSFEVPFEQIQKVQVVVTVLDYDKIGKNDAIGKVFVGYNSTGAELRHWSDMLANPRRPIAQWHTLQVEEEVDAMLAVKK
B2: synaptotagmin-1 C2AB fragment (residues 140-421) R398Q,R399Q mutant (domain or fragment)
chain: B1 chain with R259Q, R260Q

Molecular target: SNARE complex reconstituted and anchored on supported phospholipid bilayers (rat | human, UniProt P32851;P60880-2;P63045)

Row | Binder | EC50 [nM]
1 | B1 | 12
2 | B2 | 12
